Earlier results in publication PMC7249735.

Tested on: RGNNV coat protein (RGNNV-CP), MBP fusion (red-spotted grouper nervous necrosis virus (RGNNV))
Conditions: PBS (137 mM NaCl, 2.7 mM KCl, 10 mM Na2HPO4, 1.8 mM KH2PO4, pH 7.4); ELASA 30 min at 4 C after 3% BSA block; sandwich capture in PBS, temperature not stated

For “TGTGTGTCTATTGTCTGTGGTTCATGTCAAGCTTATTTTCCACACACGGT [A10]”, the Kd is listed as 4 nM.
